Experimental data from the supplement of paper PMC10567573.

Test: protein stability index of a GFP-peptide fusion (GPS, HEK-293T) (PSI 1-6); higher = more stable
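Further: lentivirally expressed fusions sorted by FACS into six bins by GFP to DsRed ratio, PSI derived from sequencing read proportions per bin multiplied by bin number.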

## FGIEIEVTDINDNAPKFQAENLDV
parent: IOH36207_21, c terminus: a fixed tail appended
  protein stability index: 2.77

## FHELQMQVTASDSGDPPLSSNVSL
parent: IOH36207_89, c terminus: a fixed tail appended
  protein stability index: 2.17

## CTHCSKSFRQRAGLIMHQVTHFRG
parent: IOH29221_83, c terminus: a fixed tail appended
  protein stability index: 2

## FHALVREIRRKEKEAVLAMEKKSK [RIT1 WT]
parent: IOH29584_30, c terminus: a fixed tail appended
  protein stability index: 1.93

## YINFRHLYKQRRRRYGQKKKKIH
parent: IOH29075_58, c terminus: native
  protein stability index: 2.11

## FDGPEAWGVCEPQREEVEERMWAA
parent: IOH29391_108, c terminus: a fixed tail appended
  protein stability index: 2.7

## SSIIHEIDSILGNKPYSKKDYRS
parent: IOH29625_62, c terminus: native
  protein stability index: 2.88

## QLTGHQRIHSGEEPHKCPECGKRF
parent: IOH29221_57, c terminus: a fixed tail appended
  protein stability index: 4.05

## RLRGLLRVLRGRPGAGSRRRGRMA [FBXO33 WT]
parent: IOH28939_7, c terminus: a fixed tail appended
  protein stability index: 2.16

## FQEYDTDCEVFRQRFRQFQYREAA
parent: IOH29221_4, c terminus: a fixed tail appended
  protein stability index: 2.58

## IPPYSRASLKGYQWLKDKILSEEG
parent: IOH29625_44, c terminus: a fixed tail appended
  protein stability index: 1.84

## VFGRGDNISDVSKFLEDDKWMEE [CROP WT]
parent: IOH29119_14, c terminus: native
  protein stability index: 1.95

## HKKKSPGEKPHRCPQCGKCFARKS
parent: IOH29221_53, c terminus: a fixed tail appended
  protein stability index: 3.46

## YQSGGRLKRPVNVPFDIFTEEVKF
parent: IOH29649_40, c terminus: a fixed tail appended
  protein stability index: 1.82

## VAAALRYLQIFATRRSCIDESQIS
parent: IOH35782_18, c terminus: a fixed tail appended
  protein stability index: 1.98

## QLDKNSEVYQEVQAMFDTLGIPKS [FAM98B WT]
parent: IOH35542_24, c terminus: a fixed tail appended
  protein stability index: 3.16

## LIKFQVGLKKLNLHEEEHVLLMAI
parent: IOH39811_53, c terminus: a fixed tail appended
  protein stability index: 2.28

## SLPLQDELAFAEDLVLDEEGARAA
parent: IOH39702_47, c terminus: a fixed tail appended
  protein stability index: 3.08

## PRCDLVDLGEGKICFCCEEFQPAK
parent: IOH35782_7, c terminus: a fixed tail appended
  protein stability index: 2.92

## YQLGEEALLKFREDEGFVREEEDR
parent: IOH29649_44, c terminus: a fixed tail appended
  protein stability index: 4.53

## GSEAAVIPLDLGCTQVTQDGDIPN
parent: IOH35782_37, c terminus: a fixed tail appended
  protein stability index: 5.39

## QELEEEIKELYENFCKHNGSKNVF
parent: IOH37933_70, c terminus: a fixed tail appended
  protein stability index: 2.68

## AEVVKIRDSFSNQNTETKDTKSR
parent: IOH28890_253, c terminus: native
  protein stability index: 2.4

## DCMGIDRQHIPDTYLCERCQPRNL
parent: IOH39874_25, c terminus: a fixed tail appended
  protein stability index: 2.99

## FSFRYQQELEEEIKELYENFCKHN
parent: IOH37933_69, c terminus: a fixed tail appended
  protein stability index: 2.5

## YKVKERLGTLKNPPKKKMKLMSG
parent: IOH28989_68, c terminus: native
  protein stability index: 1.99

## VFQHHQYLSPLERKRLAREMQLSE [VENTX WT]
parent: IOH36691_19, c terminus: a fixed tail appended
  protein stability index: 2.52

## HTGERPYECTVCKKRFTRRSHLIG
parent: IOH29221_63, c terminus: a fixed tail appended
  protein stability index: 2.07

## HDDGYMICCDKCSVWQHIDCMGID
parent: IOH39874_22, c terminus: a fixed tail appended
  protein stability index: 2.33

## TGTSNTTAIKSIEFARKGSCFLIN [RBBP5 WT]
parent: IOH28957_33, c terminus: a fixed tail appended
  protein stability index: 2.08

## LKASMRELGLLIFFLFIGVILFSS [KCNA1 WT]
parent: IOH35854_54, c terminus: a fixed tail appended
  protein stability index: 2.1

## YSLELGKAIKQKLWEALCSQGAIS [C22orf31 WT]
parent: IOH35430_40, c terminus: a fixed tail appended
  protein stability index: 2.63

## EPHKCPECGKRFLRSSDLYRHQRL
parent: IOH29221_59, c terminus: a fixed tail appended
  protein stability index: 3.96

## TYLCERCQPRNLDKERAVLLQRRK
parent: IOH39874_27, c terminus: a fixed tail appended
  protein stability index: 2.15

## RIHSGEEPHKCPECGKRFLRSSDL
parent: IOH29221_58, c terminus: a fixed tail appended
  protein stability index: 3.27

## YVDVVFANRPDPNTPMEETVRAMT
parent: IOH29625_26, c terminus: a fixed tail appended
  protein stability index: 1.96

## NDDSADYQHFLQDCVDGLFKEVKE
parent: IOH28890_220, c terminus: a fixed tail appended
  protein stability index: 2.66

## VTLELSQLSMLPHLADLVSYSIQK
parent: IOH39811_37, c terminus: a fixed tail appended
  protein stability index: 2.42

## YVASHKIEKEEQEKKRKEEEERRR [ACBD3 WT]
parent: IOH39821_30, c terminus: a fixed tail appended
  protein stability index: 2.71

## TLHQRTHTEERPFKCNYCGKSFRQ
parent: IOH29221_76, c terminus: a fixed tail appended
  protein stability index: 2.24

## CALNALTTTVCLVAAALRYLQIFA
parent: IOH35782_16, c terminus: a fixed tail appended
  protein stability index: 2.77

## PCAGSTSLSHSPGCSSTQGNGRPG
parent: IOH28989_16, c terminus: a fixed tail appended
  protein stability index: 3.04

## LGVAQRSLPLQDELAFAEDLVLDE
parent: IOH39702_46, c terminus: a fixed tail appended
  protein stability index: 2.84

## RFSRQCVVDKDKRNQCRYCRLKKC [HNF4A WT]
parent: IOH35808_17, c terminus: a fixed tail appended
  protein stability index: 2.46

## PILRLLPQGISPVSQHWATWALYN
parent: IOH29391_115, c terminus: a fixed tail appended
  protein stability index: 3.03

## HFKKTKKMGGKDFSFRYQQELEEE
parent: IOH37933_67, c terminus: a fixed tail appended
  protein stability index: 2.21

## KEMARKVIEHCSNFKEENMDTSR
parent: IOH29391_126, c terminus: native
  protein stability index: 3.58

## NLAGFILGCQGAQFVSSVPRCDLV
parent: IOH35782_4, c terminus: a fixed tail appended
  protein stability index: 2.97

## YSFYMLTCIDMDWKVLTWLRYTLW
parent: IOH29075_44, c terminus: a fixed tail appended
  protein stability index: 2.31

## YSCPATNECEITKRRRKSCQACRF [ESRRG WT]
parent: IOH39815_24, c terminus: a fixed tail appended
  protein stability index: 3.16

## YGLQGGMAFLDKRLQVKEHQHEEI
parent: IOH37933_38, c terminus: a fixed tail appended
  protein stability index: 2.62

## YRHQRLHTGERPYECTVCKKRFTR
parent: IOH29221_62, c terminus: a fixed tail appended
  protein stability index: 2.36

## EKALASILLQDHIRDLDVVVVSVA
parent: IOH37933_8, c terminus: a fixed tail appended
  protein stability index: 2.89
